Experiments:
[1] = target: SARS-CoV-2 RBD WT (for crystallization) (SARS-CoV-2, UniProt P0DTC2); experiment: crystal structure
[2] = target: yeast-displayed unmutated SARS-CoV-2 RBD (Wuhan-Hu-1) (SARS-CoV-2, UniProt P0DTC2); experiment: flow cytometry on cells
[3] = target: Prefusion-stabilized SARS-CoV-2 spike protein for SPR (residues 14–1211, D614G) (SARS-CoV-2 Wuhan-Hu-1 with D614G, D614G); experiment: SPR

B1: S2X259 Fab (Fab, V domains shown)
VH: QVQLVQSGAEVKKPGSSVKVSCKASGGIFNTYTISWVRQAPGQGLEWMGRIILMSGMANYAQKIQGRVTITADKSTSTAYMELTSLRSDDTAVYYCARGFNGNYYGWGDDDAFDIWGQGTLVTVYS
VL: QTVLTQPPSVSGAPGQRVTISCTGSNSNIGAGYDVHWYQQLPGTAPKLLICGNSNRPSGVPDRFSGSKSGTSASLAITGLQAEDEADYYCQSYDSSLSGPNWVFGGGTKLTVL
binding result [1]: binds

B2: S2H14 IgG1 (antibody, V domains shown)
VH: not shown
VL: NFMLTQPHSVSESPGKTVTISCTRSSGSIASNYVQWYQQRPGSSPTTVIYEDNQRPSGVPDRFSGSIDSSSNSASLTISGLKTEDEADYYCQSYDSSNQVFGGGTKLTVL
binding result [2]: binds

B3: S2D106 Fab (Fab, V domains shown)
VH: EVQLVQSGAEVKKPGSSVKVSCKASGGPFSSSAISWVRQAPGQGLEWMGGIIPMVGTANYAQKFQGRVTITADESTSTAYMELSSLRSEDTAVYYCARDSRYCSGGSCYSVWFDPWGQGTLVTVSS
VL: not shown
Kd [3]: 0.17 nM

From PMC9282883 (Nature, 2021)
